Test results from patent publication US20150139996A1.
One block for each substance: values may come before it.

How the values were obtained:
[1] = biological target: IgG1 heavy chain with CH3 construct 2 (K392D, K409D) (human) [IgG part: P01857]; assay: SDS-PAGE of protein A-purified supernatant; construct expressed alone
[2] = biological target: IgG1 heavy chain with CH3 construct 2 (K392D, K409D) (human) [IgG part: P01857]; assay: native MS; transfection D: vector VI alone (tetanus VH, construct 2)
[3] = biological target: IgG1 heavy chain with CH3 construct 2 (K392D, K409D) (human) [IgG part: P01857]; assay: native MS; transfection C: vector V alone (fibrinogen VH, construct 2)
[4] = biological target: IgG1 heavy chain with CH3 construct 3 (K392D, K409D, K439D) (human) [IgG part: P01857]; assay: SDS-PAGE of protein A-purified supernatant; construct expressed alone
[5] = biological target: IgG1 heavy chain with CH3 construct 3 (K392D, K409D, K439D) (human) [IgG part: P01857]; assay: native MS; transfection F: vector VIII alone (tetanus VH, construct 3)
[6] = biological target: IgG1 heavy chain with CH3 construct 3 (K392D, K409D, K439D) (human) [IgG part: P01857]; assay: native MS; transfection E: vector VII alone (fibrinogen VH, construct 3)
[7] = biological target: IgG1 heavy chain with CH3 construct 6 (T366W) (human) [IgG part: P01857]; assay: native MS; transfection P: vector IX alone (tetanus VH, construct 6)
[8] = biological target: IgG1 heavy chain with CH3 construct 6 (T366W) (human) [IgG part: P01857]; assay: SDS-PAGE of protein A-purified supernatant; construct expressed alone
[9] = biological target: IgG1 heavy chain with CH3 construct 7 (T366S, L368A, Y407V) (human) [IgG part: P01857]; assay: native MS; transfection Q: vector X alone (thyroglobulin VH, construct 7)
[10] = biological target: IgG1 heavy chain with CH3 construct 7 (T366S, L368A, Y407V) (human) [IgG part: P01857]; assay: SDS-PAGE of protein A-purified supernatant; construct expressed alone
[11] = biological target: IgG1 heavy chain with CH3 construct 70 (L351E, Y349E) (human) [IgG part: P01857]; assay: as above
[12] = biological target: IgG1 heavy chain with CH3 construct 70 (L351E, Y349E) (human) [IgG part: P01857]; assay: native MS; combination 4 co-expressed (A: VH MF1337, B: VH MF1122)
[13] = biological target: IgG1 heavy chain with CH3 construct 71 (L351D, Y349E) (human) [IgG part: P01857]; assay: SDS-PAGE of protein A-purified supernatant; construct expressed alone
[14] = biological target: IgG1 heavy chain with CH3 construct 71 (L351D, Y349E) (human) [IgG part: P01857]; assay: native MS; combination 11 co-expressed (A: VH MF1337, B: VH MF1122)
[15] = biological target: IgG1 heavy chain with CH3 construct 71 (L351D, Y349E) (human) [IgG part: P01857]; assay: native MS; combination 5 co-expressed (A: VH MF1337, B: VH MF1122)
[16] = biological target: IgG1 heavy chain with CH3 construct 73 (L351D, Y349E, L368E) (human) [IgG part: P01857]; assay: SDS-PAGE of protein A-purified supernatant; construct expressed alone
[17] = biological target: IgG1 heavy chain with CH3 construct 73 (L351D, Y349E, L368E) (human) [IgG part: P01857]; assay: native MS; combination 6 co-expressed (A: VH MF1337, B: VH MF1122)
[18] = biological target: IgG1 heavy chain with CH3 construct 74 (L351D, Y349D) (human) [IgG part: P01857]; assay: native MS; combination 10 co-expressed (A: VH MF1337, B: VH MF1122)
[19] = biological target: IgG1 heavy chain with CH3 construct 74 (L351D, Y349D) (human) [IgG part: P01857]; assay: SDS-PAGE of protein A-purified supernatant; construct expressed alone
[20] = biological target: IgG1 heavy chain with CH3 construct 75 (L351D, Y349D, R355D) (human) [IgG part: P01857]; assay: native MS; combination 9 co-expressed (A: VH MF1337, B: VH MF1122)
[21] = biological target: IgG1 heavy chain with CH3 construct 75 (L351D, Y349D, R355D) (human) [IgG part: P01857]; assay: SDS-PAGE of protein A-purified supernatant; construct expressed alone
[22] = biological target: IgG1 heavy chain with CH3 construct 76 (L351K, L368K) (human) [IgG part: P01857]; assay: native MS; combination 15 co-expressed (A: VH MF1337, B: VH MF1122)
[23] = biological target: IgG1 heavy chain with CH3 construct 76 (L351K, L368K) (human) [IgG part: P01857]; assay: SDS-PAGE of protein A-purified supernatant; construct expressed alone
[24] = biological target: IgG1 heavy chain with CH3 construct 77 (L351R) (human) [IgG part: P01857]; assay: native MS; combination 1 co-expressed (A: VH MF1337, B: VH MF1122)
[25] = biological target: IgG1 heavy chain with CH3 construct 77 (L351R) (human) [IgG part: P01857]; assay: native MS; combination 16 co-expressed (A: VH MF1337, B: VH MF1122)
[26] = biological target: IgG1 heavy chain with CH3 construct 77 (L351R) (human) [IgG part: P01857]; assay: SDS-PAGE of protein A-purified supernatant; construct expressed alone
[27] = biological target: IgG1 heavy chain with CH3 construct 78 (T366E) (human) [IgG part: P01857]; assay: native MS; combination 1 co-expressed (A: VH MF1337, B: VH MF1122)
[28] = biological target: IgG1 heavy chain with CH3 construct 78 (T366E) (human) [IgG part: P01857]; assay: SDS-PAGE of protein A-purified supernatant; construct expressed alone
[29] = biological target: IgG1 heavy chain with CH3 construct 79 (T366R) (human) [IgG part: P01857]; assay: native MS; combination 14 co-expressed (A: VH MF1337, B: VH MF1122)
[30] = biological target: IgG1 heavy chain with CH3 construct 80 (L351E) (human) [IgG part: P01857]; assay: as above
[31] = biological target: IgG1 heavy chain with CH3 construct 79 (T366R) (human) [IgG part: P01857]; assay: SDS-PAGE of protein A-purified supernatant; construct expressed alone
[32] = biological target: IgG1 heavy chain with CH3 construct 80 (L351E) (human) [IgG part: P01857]; assay: as above
[33] = biological target: IgG1 heavy chain with CH3 construct 80 (L351E) (human) [IgG part: P01857]; assay: native MS; combination 13 co-expressed (A: VH MF1337, B: VH MF1122)

Substance: IgG1 heavy chain with CH3 construct 2 (K392D, K409D) (from UniProt P01857-1)
- % IgG [1]: 30.9%
- % half molecule [1]: 69.1%
- Full IgG found (%) [2]: 77%
- Half molecules found (%) [2]: 23%
- Full IgG found (%) [3]: 23%
- Half molecules found (%) [3]: 77%

Substance: IgG1 heavy chain with CH3 construct 3 (K392D, K409D, K439D) (from UniProt P01857-1)
- % IgG [4]: 24.5%
- % half molecule [4]: 75.5%
- Full IgG found (%) [5]: 36%
- Half molecules found (%) [5]: 64%
- Full IgG found (%) [6]: 24%
- Half molecules found (%) [6]: 76%

Substance: IgG1 heavy chain with CH3 construct 6 (T366W) (from UniProt P01857-1)
- Full IgG found (%) [7]: 18%
- Half molecules found (%) [7]: 82%
- % IgG [8]: 27.6%
- % half molecule [8]: 72.4%

- Full IgG found (%) [9]: 42%
- Half molecules found (%) [9]: 58%
- % IgG [10]: 58.6%
- % half molecule [10]: 41.4%
Substance: IgG1 heavy chain with CH3 construct 7 (T366S, L368A, Y407V) (from UniProt P01857-1)

- % IgG [11]: 67.8%
- % half molecule [11]: 32.2%
- % BB found [12]: 0%
Substance: IgG1 heavy chain with CH3 construct 70 (L351E, Y349E) (from UniProt P01857-1)

- % IgG [13]: 79.7%
- % half molecule [13]: 20.3%
- % BB found [14]: 0%
- % BB found [15]: 1%
Substance: IgG1 heavy chain with CH3 construct 71 (L351D, Y349E) (from UniProt P01857-1)

- % IgG [16]: 79.3%
- % half molecule [16]: 20.7%
- % BB found [17]: 1%
Substance: IgG1 heavy chain with CH3 construct 73 (L351D, Y349E, L368E) (from UniProt P01857-1)

- % BB found [18]: 1%
- % IgG [19]: 88.6%
- % half molecule [19]: 11.4%
Substance: IgG1 heavy chain with CH3 construct 74 (L351D, Y349D) (from UniProt P01857-1)

Substance: IgG1 heavy chain with CH3 construct 75 (L351D, Y349D, R355D) (from UniProt P01857-1)
- % BB found [20]: 2%
- % IgG [21]: 89.9%
- % half molecule [21]: 10.1%

- % BB found [22]: 2.5%
- % IgG [23]: 56.6%
- % half molecule [23]: 43.4%
Substance: IgG1 heavy chain with CH3 construct 76 (L351K, L368K) (from UniProt P01857-1)

- % BB found [24]: 2%
- % BB found [25]: 1%
- % IgG [26]: 100%
Substance: IgG1 heavy chain with CH3 construct 77 (L351R) (from UniProt P01857-1)

Substance: IgG1 heavy chain with CH3 construct 78 (T366E) (from UniProt P01857-1)
- % AA found [27]: 3%
- % AB found [24]: 81%
- % IgG [28]: 44.4%
- % half molecule [28]: 55.6%

- % AA found [29]: 4%
- % AB found [30]: 38%
- % IgG [31]: 29.6%
- % half molecule [31]: 70.4%
Substance: IgG1 heavy chain with CH3 construct 79 (T366R) (from UniProt P01857-1)

- % BB found [30]: 36%
- % IgG [32]: 100%
- % BB found [33]: 10%
Substance: IgG1 heavy chain with CH3 construct 80 (L351E) (from UniProt P01857-1)
